{"source": "patent US20100120695A1", "about": "(University of Pennsylvania, published 2010)", "key": {"[1]": {"molecular_target": "integrin αVβ3 on human platelets (human, UniProt P06756 31-1048; P05106 27-788)", "sequence (P06756 31-1048, chain 1 of 2)": "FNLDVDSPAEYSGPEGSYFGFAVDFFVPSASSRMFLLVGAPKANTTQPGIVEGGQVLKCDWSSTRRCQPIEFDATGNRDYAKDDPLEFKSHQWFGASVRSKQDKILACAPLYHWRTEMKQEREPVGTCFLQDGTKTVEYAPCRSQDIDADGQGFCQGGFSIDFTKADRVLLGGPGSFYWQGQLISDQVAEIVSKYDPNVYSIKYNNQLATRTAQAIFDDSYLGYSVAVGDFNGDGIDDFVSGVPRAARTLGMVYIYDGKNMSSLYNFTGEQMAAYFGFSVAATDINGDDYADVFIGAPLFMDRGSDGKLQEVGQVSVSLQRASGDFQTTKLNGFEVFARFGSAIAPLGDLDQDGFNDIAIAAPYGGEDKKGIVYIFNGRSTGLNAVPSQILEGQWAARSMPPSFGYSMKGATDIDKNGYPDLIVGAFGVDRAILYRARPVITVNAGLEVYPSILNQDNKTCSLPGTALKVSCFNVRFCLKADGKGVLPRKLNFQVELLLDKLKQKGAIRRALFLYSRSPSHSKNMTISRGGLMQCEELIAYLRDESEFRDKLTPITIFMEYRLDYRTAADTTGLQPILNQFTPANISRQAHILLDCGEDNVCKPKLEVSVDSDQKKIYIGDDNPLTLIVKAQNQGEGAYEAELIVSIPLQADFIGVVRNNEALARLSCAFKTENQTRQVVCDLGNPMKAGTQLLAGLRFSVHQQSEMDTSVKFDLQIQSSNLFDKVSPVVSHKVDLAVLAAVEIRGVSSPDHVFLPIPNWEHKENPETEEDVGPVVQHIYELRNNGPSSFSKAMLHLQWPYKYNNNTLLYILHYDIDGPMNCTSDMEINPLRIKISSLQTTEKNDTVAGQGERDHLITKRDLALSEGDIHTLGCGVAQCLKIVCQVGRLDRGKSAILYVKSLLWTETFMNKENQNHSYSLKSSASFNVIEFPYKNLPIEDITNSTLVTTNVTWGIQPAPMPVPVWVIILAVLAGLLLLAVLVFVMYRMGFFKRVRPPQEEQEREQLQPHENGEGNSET", "sequence (P05106 27-788, chain 2 of 2)": "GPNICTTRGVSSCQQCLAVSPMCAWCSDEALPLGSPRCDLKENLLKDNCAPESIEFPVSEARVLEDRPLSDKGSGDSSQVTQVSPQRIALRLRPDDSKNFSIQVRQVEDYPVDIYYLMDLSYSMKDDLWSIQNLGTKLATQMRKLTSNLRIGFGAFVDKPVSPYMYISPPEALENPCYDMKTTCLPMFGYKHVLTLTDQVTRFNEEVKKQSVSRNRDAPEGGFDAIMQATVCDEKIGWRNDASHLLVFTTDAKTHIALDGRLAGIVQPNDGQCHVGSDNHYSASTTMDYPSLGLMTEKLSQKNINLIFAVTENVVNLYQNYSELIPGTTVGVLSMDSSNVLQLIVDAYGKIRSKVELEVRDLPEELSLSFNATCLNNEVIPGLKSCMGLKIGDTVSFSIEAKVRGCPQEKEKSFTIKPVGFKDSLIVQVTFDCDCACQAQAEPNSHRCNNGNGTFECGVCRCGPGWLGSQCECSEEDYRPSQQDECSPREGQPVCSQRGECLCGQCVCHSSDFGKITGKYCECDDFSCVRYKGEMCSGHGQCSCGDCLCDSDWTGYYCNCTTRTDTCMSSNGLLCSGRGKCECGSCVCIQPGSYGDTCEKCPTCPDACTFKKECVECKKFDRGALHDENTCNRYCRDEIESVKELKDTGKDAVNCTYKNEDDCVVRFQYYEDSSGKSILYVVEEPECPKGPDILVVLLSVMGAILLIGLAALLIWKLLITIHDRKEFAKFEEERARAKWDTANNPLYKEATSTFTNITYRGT", "test": "cell-based or functional assay"}, "αV-TM-coum": {"molecular_target": "T1, αV-TM-coum (coumarin label (site not stated))", "T1 peptide": "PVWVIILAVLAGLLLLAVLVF", "test": "analytical ultracentrifugation, equilibrium sedimentation, heterodimer, 1:1 mixture in 5 mM C14-betaine micelles"}, "[2]": {"molecular_target": "the molecule itself", "test": "analytical ultracentrifugation, equilibrium sedimentation, homodimer, 5 mM C14-betaine micelles", "experimental": "(§1) Equilibrium sedimentation was used primarily to determine the association state of the peptides, but also to provide a rough estimate of the heterodimeric association constants. […] Peptides were co-dissolved in CF₃CH₂OH (Sigma-Aldrich, St. Louis, Mo.) and C14-betaine (3-(N,N-dimethylmyristyl-ammonio)propanesulfonate; Sigma-Aldrich, St. Louis, Mo.). […] The final concentration of C-14 betaine is 5 mM in the samples. Samples were prepared in a total peptide concentration of 50 μM (in case of heterodimer formation, a 1:1 mixture was prepared) and incubated overnight. Data at three measurement speeds (40, 45, and 50 KRPM for αIIb peptides and 30, 35, and 40 KRPM for the αv peptides) were analyzed by global curve-fitting of radial concentration gradients (measured using optical absorption) (FIG. 8a-8f) to the sedimentation equilibrium equation for monomer-dimer equilibria among the peptides included in the solution. […] Aqueous solution molar extinction coefficients at 280 nm were calculated using the program Sednterp. […] These coefficients were multiplied by the molar detergent concentration to provide mole ratio concentration units.\n(§2) Ultracentrifugation data (FIG. 8) were first collected for the individual peptides."}, "[3]": {"molecular_target": "T2, fluorescein-5-isothiourea-tagged αIIb-TM (fluorescein-5-isothiourea (FITC) attached via an ε-aminohexanoic acid linker to the N-terminus)", "T2 construct": "also called FITC-αIIb-TM; αIIb-TM-FITC", "T2 peptide": "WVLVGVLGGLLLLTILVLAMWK", "test": "analytical ultracentrifugation, equilibrium sedimentation, heterodimer, 1:1 mixture in 5 mM C14-betaine micelles", "experimental": "as §1, §2"}}, "note": "Square brackets hold non-standard residues; d marks the D form. Ends that are not written are not given here. AEEA = NCCOCCOCC(=O)O"}
{"binder": "[AEEA]AYVFILLSFILGTLLGFLVMFWA (designed binder)", "note": "[anti-αV polypeptide]", "values": [{"measurement": "fold decrease in potency in inducing platelet adhesion to immobilized osteopontin", "setting": "[1]", "value": "~10", "unit": "fold"}, {"measurement": "Dimerization pKdiss", "setting": "αV-TM-coum", "value": "> 2 pKdiss (mole ratio units)"}]}
{"binder": "WVLVGVLGGLLLLTILVLAMWK", "note": "[αIIb-TM polypeptide]", "values": [{"measurement": "Dimerization pKdiss", "setting": "[2]", "value": "1.8 pKdiss (mole ratio units)"}]}
{"binder": "KKAYVMLLPFFIGLLLGLIFGGAFWGPARHLKK (designed binder, also: FITC-labeled, site not given here)", "note": "[Anti-αIIb (FITC-labeled)]", "values": [{"measurement": "Dimerization pKdiss", "setting": "[2]", "value": "2.3 pKdiss (mole ratio units)"}]}
{"binder": "KKAYVMLLPFFIGLLLGLIFGGAFWGPARHLKK (designed binder, also called anti-am)", "note": "[anti-αIIb polypeptide]", "values": [{"measurement": "Dimerization pKdiss", "setting": "[3]", "value": "2.6 pKdiss (mole ratio units)"}]}
{"binder": "PVWVIILAVLAGLLLLAVLVF", "note": "[αV-TM]", "values": [{"measurement": "Dimerization pKdiss", "setting": "[2]", "value": "0.7 pKdiss (mole ratio units)"}]}
{"binder": "AYVFILLSFILGTLLGFLVMFWA (designed binder, also: coumarin-labeled, site not given here)", "note": "[Anti-αV(coumarin-labeled)]", "values": [{"measurement": "Dimerization pKdiss", "setting": "[2]", "value": "1.4 pKdiss (mole ratio units)"}]}
